The assay concerns the target surface antigen S of hepatitis B virus (Greencross Co.) (hepatitis B virus). Briefly: competitive ELISA: antibody pre-incubated with soluble surface antigen S, then plate coated with surface antigen S. For orientation: In an ELISA, binding on a coated surface is turned into a signal by an enzyme label.

B1: humanized antibody HzS-III (antibody, V domains shown)
VH: EVQLVQSGAEVKKPGASVKVSCKASGYTFTDYNVQWVRQAPGKSLEWMGYIYPYSGGTGYSQKFQGRVTLTVDNSASTAYMELSSLRSEDTAVYYCARNYGYDSSAYWGQGTLVTVSS
VL: DIVLTQSPASLAVSPGQRATITCRASESVSNYGINFINWFQQKPGQPPKLLIYTASNKGTGVPARFSGSGSGTDFTLTINPVEAEDTANYFCQQSKEVPYTFGGGTKVEIKR
As for B1, the Ka amounted to 4e+09 M⁻¹.

The record behind these values is patent US20030096403A1.
